Laboratory results: patent US20220356210A1, “A SERIES OF INJECTABLE HYDROGELS SELF-ASSEMBLED FROM SHORT PEPTIDES FOR VARIOUS BIOMEDICAL APPLICATIONS” (Agency for Science, Technology and Research, priority 2019, published 2022)
No end group written: not given here.

Tests used:
[1] = system: human dermal fibroblasts (HDFs); assay: In vitro cytotoxicity, MTT assay; type: cell-based; details: 2000 μg/mL, 24 h
Description: (§1) 1000 μL of HDFs or keratinocytes (10^5 cells per mL) were seeded onto the 12-well Transwell plates (Corning). IIK12 (1%) with various contents of antimicrobial peptides were dissolved in water and incubated at 37° C. overnight and 100 μL of gels were then transferred to the inserts of the Transwell plate. 1 mL of fresh medium was added into the inserts. The plates were incubated for 24 h before proceeding to MTT assay. It is noted that cells without any treatment and Mupirocin (GSK) were used as controls. The data were expressed as mean and standard deviation of three replicates and the tests were repeated 3 times.

[2] = system: human primary keratinocytes; assay: In vitro cytotoxicity, MTT assay; type: cell-based; details: 24 h
Description: as §1

[3] = Gelation by vial tilting method; type: physicochemical
Description: The peptide powder was dissolved in water or other aqueous solutions at the required concentrations. Alternatively, the required salt may be added after the peptide aqueous solution is prepared. The hydrogel was formed by mixing the peptide aqueous solution and salt (if required). For example, the solution was vortexed and then incubated to form hydrogel. The hydrogel formed may be stored as formed, or may be dried, for example by freeze drying. Alternatively, the hydrogel may be formed as required. The gelation time was determined by the vial tilting method. […] Rheology experiments were performed at room temperature using a control-strain rheometer (ARES G2, TA instruments). The rheometer is equipped with two sensitive force transducers for torque ranging from 0.05 μN·m to 200 mN·m. The peptide powder was dissolved in water at concentrations ranging from 1.0 to 2.0 (w/v) %. The solution was vortexed and then incubated to form hydrogel. The gel was placed onto parallel-plate geometry (8 mm in diameter). The dynamic storage modulus (G′) and loss modulus (G″) were examined as a function of frequency from 1 to 100 rad/s. The measurements were carried out at a strain amplitude (y) to ensure the linearity of viscoelasticity. Flow sweep (viscosity changes as a function of shear rate) was also performed to study shear thinning properties of hydrogels.

[4] = Rheology, G′ and G″ at frequency of 1 Hz; type: physicochemical; details: incubated at 37° C. overnight
Description: The gelation time was determined by the vial tilting method. […] Rheology experiments were performed at room temperature using a control-strain rheometer (ARES G2, TA instruments). The rheometer is equipped with two sensitive force transducers for torque ranging from 0.05 μN·m to 200 mN·m. […] The solution was vortexed and then incubated to form hydrogel. The gel was placed onto parallel-plate geometry (8 mm in diameter). The dynamic storage modulus (G′) and loss modulus (G″) were examined as a function of frequency from 1 to 100 rad/s. The measurements were carried out at a strain amplitude (y) to ensure the linearity of viscoelasticity. Flow sweep (viscosity changes as a function of shear rate) was also performed to study shear thinning properties of hydrogels.

[5] = Dynamic step strain amplitude test; type: physicochemical; details: 2.0 (w/v) % in water
Source text: The reduction of viscosity was attributed to the disruption of physical cross-links between the peptide molecules upon the application of shear stress. In order for a peptide gel construct containing a drug and/or cell/s to be delivered by syringe, it is essential that the disrupted gel with low viscosity could rapidly recover back into a stiff gel when the shear stress terminates. The ability of the peptide hydrogels to recover was investigated using a dynamic step strain amplitude test, where strain of 0.5% and 100% were periodically applied on the peptide hydrogels. […] After subjected 30 s of continuous high strain, the strain was reduced to 0.5%. […] This reversibility of peptide hydrogel in the presence of DMEM was further evaluated under the same conditions. […] The G′ value is reduced remarkably by ˜2000 times to ˜1 Pa when subjected a high stain of 100%. […] A similar phenomenon was also observed for IIK12 hydrogel, where the storage moduli of IIK12 hydrogel increased with increasing peptide concentrations (Table 5). […] This rheological behavior of the peptide hydrogels offers a great advantage for use as an injectable matrix for delivery of therapeutics such as drugs and cells. The fast recovery kinetics can be explained by the fact that the physical cross-links of the gel network immediately recovered after the high strain terminated.

C. albicans = assay: Antimicrobial activity of peptide hydrogels (OD and agar plating); type: cell-based; details: control gel, IIK12 at 1%, no antimicrobial peptide
Description: (§2) Hydrogels for the antimicrobial assays were prepared in 96-well tissue culture plates (NUNC). Briefly, IIK12 (1%) with various contents of antimicrobial peptides was dissolved in water and vortexed. 50 μL of solution was transferred to the wells. Gelation occurred overnight at 37° C. The growth of microorganisms on hydrogels was measured using a broth dilution method. Briefly, 30 μL of microorganism suspension (3.5×10^5 CFU/mL) was introduced onto the hydrogels, and a 96-well plate and peptide hydrogel without antimicrobial peptides were used as controls. The optical density readings of bacterial solutions were monitored by measuring OD600 nm. The assay was performed in four replicates for each sample and the experiments were repeated at least three times. Antimicrobial activity was further tested through a spread plate method. Briefly, hydrogels were challenged with microorganism solution, at the end of treatment, microbial suspension on the hydrogel surface was withdrawn and diluted sequentially, and then plated on 1.5% LB agar plates. The plates were incubated for 24 h at 37° C. (48 h at room temperature for C. albicans). Microbial colonies were formed and counted. The experiments were performed in triplicate and were repeated three times.

E. coli = assay: as above; type: cell-based; details: control gel, IIK12 at 1%, no antimicrobial peptide
Description: as §2

S. aureus [6] = assay: as above; type: cell-based; details: control gel, IIK12 at 1%, no antimicrobial peptide
Description: as §2

S. aureus [7] = assay: Killing kinetics test; type: cell-based; details: 24 h of incubation
Description: The microbes were treated with peptide hydrogels as described above. At various time periods of treatment, the microbial samples were diluted for plating (LB Agar, 1st Base). Incubation conditions: 18 h, 37° C. for bacteria. The colony-forming units were counted after the incubation period. The experiment was repeated in independent settings three times.

S. aureus [8] = assay: Disk diffusion assay; type: cell-based; details: hydrogel cast on inoculated agar, one day at 37° C.
Description: Antimicrobial activity was further tested through a disk diffusion assay. Briefly, microbial suspension (S. aureus, ATCC No. 6538) with 3.5×10^6 CFU/mL (40 μL) was spread on 1.5% LB agar plates. Disks (Sigma) were prepared to contain 50 μL of peptides with various concentrations by dripping 50 μL of peptides solutions onto a sterile disk. Disks were air-dried for several minutes before being placed onto different zones in the agar plates. Hydrogels (100 μL) were placed onto LB agar plates. The plates were incubated for 24 h at 37° C.

Compound: C/C(=C\C(=O)OCCCCCCCCC(=O)O)C[C@@H]1OC[C@H](C[C@@H]2O[C@H]2[C@@H](C)[C@H](C)O)[C@@H](O)[C@H]1O [Mupirocin, reference compound]
- Cell viability [1]: more than 80%
- Cell viability [2]: 80-90%

Compound: IRIKIEIEIRIK (IRIKIEIEIRIK-NH2) [IIK12]
- Lowest concentration at which hydrogels self-assembled ([3]; aqueous solution): 0.6 (w/v) %
- Gelation in DI water at 37° C. (via tilting) ([3]; peptide conc. 0.6, 1.0 %): Gel
- G′ (storage modulus) ([4]; 0.6 wt %, H2O): 65 Pa
- G″ (loss modulus) ([4]; 0.6 wt %, H2O): 7 Pa
- G′ (storage modulus) ([4]; 0.8 wt %, H2O): 131 Pa
- G″ (loss modulus) ([4]; 0.8 wt %, H2O): 24 Pa
- G′ (storage modulus) ([4]; 1.0 wt %, DMEM): 1206 Pa
- G″ (loss modulus) ([4]; 1.0 wt %, DMEM): 176 Pa
- G′ (storage modulus) ([4]; 1.0 wt %, H2O): 279 Pa
- G″ (loss modulus) ([4]; 1.0 wt %, H2O): 48 Pa
- G′ (storage modulus) ([4]; 1.5 wt %, H2O): 598 Pa
- G″ (loss modulus) ([4]; 1.5 wt %, H2O): 66 Pa
- G′ (storage modulus) ([4]; 2.0 wt %, H2O): 865 Pa
- G″ (loss modulus) ([4]; 2.0 wt %, H2O): 69 Pa
- Rheological behavior in dynamic step strain amplitude measurement [5]: reversible rheological behavior
- Killing of the microbes (OD measurement and agar plating) (C. albicans): ineffective
- Killing of the microbes (OD measurement and agar plating) (E. coli): ineffective
- Killing of the microbes (OD measurement and agar plating) (S. aureus [6]): ineffective
- Log (CFU) (S. aureus [7]): 9.28
- S. aureus colony formation on agar in contact with gel (S. aureus [8]): ineffective
